{
  "source": "paper PMC5364394",
  "target": "FLAG-SF2/ASF purified (human, UniProt Q07955 1-248)",
  "sequence (Q07955 whole entry)": "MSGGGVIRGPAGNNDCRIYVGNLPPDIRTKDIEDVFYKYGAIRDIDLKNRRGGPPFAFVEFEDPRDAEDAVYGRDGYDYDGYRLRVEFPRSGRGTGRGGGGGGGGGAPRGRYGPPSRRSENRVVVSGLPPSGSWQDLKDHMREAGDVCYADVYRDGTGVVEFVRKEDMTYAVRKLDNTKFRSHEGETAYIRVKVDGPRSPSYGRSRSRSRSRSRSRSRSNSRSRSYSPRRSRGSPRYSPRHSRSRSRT",
  "experiment": "EMSA",
  "settings": "protein: recombinant; tags: FLAG; label: IRDye-800",
  "data": [
    {"binder": "GACAUACUGACAAGGAUGUC (ssRNA)", "note": "[H7N9-NS-529-548 (NEP-ESE, 540A, WT)]", "values": [
      {"measurement": "binding result", "value": "binds"}
    ]}
  ]
}
